Data published in publication PMC10174515.

Substrate: O=C(O)C(=O)O
Assay: purified protein
Details: pH 3.1, 37 °C, MBTH 0.11 mM, DMAB 1.6 mM, HRP 0.1 U/ml, potassium oxalate, concentrations up to 400 uM, substrate (product) inhibition data excluded

B1: barley oxalate oxidase (OxOx) (Hordeum vulgare) (protein)
chain: SDPDPLQDFCVADLDGKAVSVNGHTCKPMSEAGDDFLFSSKLTKAGNTSTPNGSAVTELDVAEWPGTNTLGVSMNRVDFAPGGTNPPHIHPRATEIGMVMKGELLVGILGSLDSGNKLYSRVVRAGETFVIPRGLMHFQFNVGKTEAYMVVSFNSQNPGIVFVPLTLFGSDPPIPTPVLTKALRVEAGVVELLKSKFAGGS
  Km: 256 µM
